Results on three molecules are retold here after PMC6745501, “Plant photoreceptors and their signaling components compete for COP1 binding via VP peptide motifs” (The EMBO Journal, 2019).

Experiment [1] deals with COP1 WD40 domain. The experiment can be described thus: Analytical size-exclusion chromatography binding assay. Particulars: Superdex 200 Increase 10/300 GL, ~4 μM per protein, 150 mM NaCl, 20 mM HEPES 7.4, 2 mM BME, protein pre-monomerized by UV-B. Also noted: species or system Arabidopsis. As to the method:
500 μl of the respective protein solution or a mixture (~ 4 μM per protein) was loaded sequentially onto the column, and elution at 0.75 ml/min was monitored by UV absorbance at 280 nm.
(In general: In gel filtration, larger molecules generally elute earlier.)

Experiment [2] has as its target COP1 WD40 domain. Nature of the experiment: Grating-coupled interferometry (GCI) binding kinetics versus the COP1 WD40 domain. On the set-up: species or system Arabidopsis. The conditions noted are these: for Kd: ligand COP1 (2,000 pg/mm^2), analyte pre-monomerized by UV-B, highest concentration 2 μM, 150 mM NaCl, 20 mM HEPES 7.4, 2 mM BME, 25°C, 1:1 binding model, read-out: Kd (dissociation constant), + UV-B. As to the method: For CRY2 activation, proteins were diluted to their final assay concentrations (as indicated in the figure legends) in Eppendorf tubes and exposed to 10 min of fluorescent light on ice.
The Creoptix WAVE system (Creoptix AG), a label‐free surface biosensor, was used to perform GCI experiments. All experiments were performed on 2PCH or 4PCH WAVEchips (quasi‐planar polycarboxylate surface; Creoptix AG). After a borate buffer conditioning (100 mM sodium borate pH 9.0, 1 M NaCl; Xantec), COP1 (ligand) was immobilized on the chip surface using standard amine‐coupling: 7 min activation [1:1 mix of 400 mM N‐(3‐dimethylaminopropyl)‐N′‐ethylcarbodiimide hydrochloride and 100 mM N‐hydroxysuccinimide (both Xantec)], injection of COP1 (10 μg/ml) in 10 mM sodium acetate pH 5.0 (Sigma) until the desired density was reached, and final quenching with 1 M ethanolamine pH 8.0 for 7 min (Xantec). […] Blank injections were used for double referencing and a dimethyl sulfoxide (DMSO) calibration curve for bulk correction. Analysis and correction of the obtained data were performed using the Creoptix WAVEcontrol software (applied corrections: X and Y offset; DMSO calibration; double referencing), and a one‐to‐one binding model or a heterogenous ligand model with bulk correction was used to fit all experiments.

Values joined by “and” are separate entries in the source; they are usually repeats but may differ in a detail not shown here. Identical values can stand only once.

B1: UVR8^12–381: UVR8 β-propeller core, residues 12–381 (protein, UniProt Q9FN03 12-381, looked up, fragment)
chain: APPRKVLIISAGASHSVALLSGDIVCSWGRGEDGQLGHGDAEDRPSPTQLSALDGHQIVSVTCGADHTVAYSQSGMEVYSWGWGDFGRLGHGNSSDLFTPLPIKALHGIRIKQIACGDSHCLAVTMEGEVQSWGRNQNGQLGLGDTEDSLVPQKIQAFEGIRIKMVAAGAEHTAAVTEDGDLYGWGWGRYGNLGLGDRTDRLVPERVTSTGGEKMSMVACGWRHTISVSYSGALYTYGWSKYGQLGHGDLEDHLIPHKLEALSNSFISQISGGWRHTMALTSDGKLYGWGWNKFGQVGVGNNLDQCSPVQVRFPDDQKVVQVSCGWRHTLAVTERNNVFAWGRGTNGQLGIGESVDRNFPKIIEALSVDG
By Kd is commonly meant a measure of binding affinity in units of concentration. B1: the “Interaction with the COP1 WD40 domain in size-exclusion chromatography, UV-B-activated” value in the experiment on COP1 WD40 domain [1] is recorded as “interacts”. Further, at COP1 WD40 domain [2], the Kd is ~500 nM and 583 nM.

B2: CRY2: recombinant full-length Arabidopsis cryptochrome 2 (protein)
chain: MKMDKKTIVWFRRDLRIEDNPALAAAAHEGSVFPVFIWCPEEEGQFYPGRASRWWMKQSLAHLSQSLKALGSDLTLIKTHNTISAILDCIRVTGATKVVFNHLYDPVSLVRDHTVKEKLVERGISVQSYNGDLLYEPWEIYCEKGKPFTSFNSYWKKCLDMSIESVMLPPPWRLMPITAAAEAIWACSIEELGLENEAEKPSNALLTRAWSPGWSNADKLLNEFIEKQLIDYAKNSKKVVGNSTSLLSPYLHFGEISVRHVFQCARMKQIIWARDKNSEGEESADLFLRGIGLREYSRYICFNFPFTHEQSLLSHLRFFPWDADVDKFKAWRQGRTGYPLVDAGMRELWATGWMHNRIRVIVSSFAVKFLLLPWKWGMKYFWDTLLDADLECDILGWQYISGSIPDGHELDRLDNPALQGAKYDPEGEYIRQWLPELARLPTEWIHHPWDAPLTVLKASGVELGTNYAKPIVDIDTARELLAKAISRTREAQIMIGAAPDEIVADSFEALGANTIKEPGLCPSVSSNDQQVPSAVRYNGSKRVKPEEEEERDMKKSRGFDERELFSTAESSSSSSVFFVSQSCSLASEGKNLEGIQDSSDQITTSLGKNGCK
modifications: left off: His10, N-terminal, cleaved | Twin-Strep, N-terminal, cleaved
As for B2, in the experiment with COP1 WD40 domain [2] (ligand COP1 (2000 pg/mm2), analyte + no additional light, highest concentration 14 μM), the “Binding to the COP1 WD40 domain in the absence of supplemental fluorescent light” value was “No binding was observed”.

B3: UVR8^12–415: UVR8 core with C-terminus extended to include the VP peptide motif, residues 12–415 (protein)
chain: APPRKVLIISAGASHSVALLSGDIVCSWGRGEDGQLGHGDAEDRPSPTQLSALDGHQIVSVTCGADHTVAYSQSGMEVYSWGWGDFGRLGHGNSSDLFTPLPIKALHGIRIKQIACGDSHCLAVTMEGEVQSWGRNQNGQLGLGDTEDSLVPQKIQAFEGIRIKMVAAGAEHTAAVTEDGDLYGWGWGRYGNLGLGDRTDRLVPERVTSTGGEKMSMVACGWRHTISVSYSGALYTYGWSKYGQLGHGDLEDHLIPHKLEALSNSFISQISGGWRHTMALTSDGKLYGWGWNKFGQVGVGNNLDQCSPVQVRFPDDQKVVQVSCGWRHTLAVTERNNVFAWGRGTNGQLGIGESVDRNFPKIIEALSVDGASGQHIESSNIDPSSGKSWVSPAERYAVVPDETG
modifications: left off: His10, N-terminal, cleaved | Twin-Strep, N-terminal, cleaved
Regarding B3, the Kd on COP1 WD40 domain [2] was found to be 120 nM.
